target: T1, HLA-B*08:01 (human); experiment: UV peptide exchange ELISA
T1 construct: MHC monomer first loaded with a UV-sensitive peptide that is cleaved by UV light and exchanged for the test peptide
Excerpt: Candidate peptides for T cell based therapies according to the present invention were further tested for their MHC binding capacity (affinity). The individual peptide-MHC complexes were produced by UV-ligand exchange, where a UV-sensitive peptide is cleaved upon UV-irradiation and exchanged with the peptide of interest as analyzed. Only peptide candidates that can effectively bind and stabilize the peptide-receptive MHC molecules prevent dissociation of the MHC complexes. To determine the yield of the exchange reaction, an ELISA was performed based on the detection of the light chain (β2m) of stabilized MHC complexes. The assay was performed as generally described in Rodenko et al. (Rodenko et al., 2006).
96 well MAXISorp plates (NUNC) were coated over night with 2 ug/ml streptavidin in PBS at room temperature, washed 4× and blocked for 1 h at 37° C. in 2% BSA containing blocking buffer. Refolded HLA-A*02:01/MLA-001 monomers served as standards, covering the range of 15-500 ng/ml. Peptide-MHC monomers of the UV-exchange reaction were diluted 100-fold in blocking buffer. Samples were incubated for 1 h at 37° C., washed four times, incubated with 2 ug/ml HRP conjugated anti-β2m for 1 h at 37° C., washed again and detected with TMB solution that is stopped with […]. Absorption was measured at 450 nm. Candidate peptides that show a high exchange yield (preferably higher than 50%, most preferred higher than 75%) are generally preferred for a generation and production of antibodies or fragments thereof, and/or T cell receptors or fragments thereof, as they show sufficient avidity to the MHC molecules and prevent dissociation of the MHC complexes.

Binder | peptide exchange yield [%]
FLRVFTDSL [FLRVFTDSL (SEQ ID NO: 49)] | 50 to 75
IPLAIARL [IPLAIARL (SEQ ID NO: 238)] | 50 to 75
MPKRAHWGA [MPKRAHWGA (SEQ ID NO: 225)] | 50 to 75
EAFSRASL [EAFSRASL (SEQ ID NO: 37)] | 20 to 50
DAKSKIEQI [DAKSKIEQI (SEQ ID NO: 39)] | 20 to 50
DLQKKAQAL [DLQKKAQAL (SEQ ID NO: 30)] | 20 to 50
HLTNRVLSL [HLTNRVLSL (SEQ ID NO: 44)] | 50 to 75
HSRVKLAQL [HSRVKLAQL (SEQ ID NO: 47)] | 20 to 50
DIYEVAVSL [DIYEVAVSL (SEQ ID NO: 226)] | 50 to 75
DAAAFFKSV [DAAAFFKSV (SEQ ID NO: 251)] | 20 to 50
KLYIHRVTL [KLYIHRVTL (SEQ ID NO: 232)] | 20 to 50
MPLKHYLL [MPLKHYLL (SEQ ID NO: 57)] | 20 to 50
DLRKLKRQL [DLRKLKRQL (SEQ ID NO: 53)] | 20 to 50
EVYQKIIL [EVYQKIIL (SEQ ID NO: 38)] | 50 to 75
GEKLLRPSL [GEKLLRPSL (SEQ ID NO: 231)] | 20 to 50
ELFLHPVL [ELFLHPVL (SEQ ID NO: 29)] | 20 to 50
KVIDRKVEL [KVIDRKVEL (SEQ ID NO: 240)] | 20 to 50
DLSRRDVSL [DLSRRDVSL (SEQ ID NO: 54)] | 20 to 50
NAYEAPSI [NAYEAPSI (SEQ ID NO: 241)] | 20 to 50
DARCKLAEL [DARCKLAEL (SEQ ID NO: 26)] | 20 to 50
DLVLKRCL [DLVLKRCL (SEQ ID NO: 24)] | ≥ 75
DLKKLVDSL [DLKKLVDSL (SEQ ID NO: 43)] | 50 to 75
EGVPPGTVL [EGVPPGTVL (SEQ ID NO: 243)] | 50 to 75
DVKLVFVM [DVKLVFVM (SEQ ID NO: 233)] | 20 to 50

Binder | peptide exchange yield [%]
ESMLKTTL [ESMLKTTL (SEQ ID NO: 40)] | 20 to 50
IVKIKVQEL [IVKIKVQEL (SEQ ID NO: 36)] | 20 to 50
HALPPYITVL [HALPPYITVL (SEQ ID NO: 244)] | 20 to 50
ILCGSRKMPL [ILCGSRKMPL (SEQ ID NO: 56)] | 20 to 50
AARAPPQAL [AARAPPQAL (SEQ ID NO: 250)] | 20 to 50
DVSARKLRV [DVSARKLRV (SEQ ID NO: 223)] | 20 to 50
ELALRQTV [ELALRQTV (SEQ ID NO: 48)] | 20 to 50
HLHPKGREL [HLHPKGREL (SEQ ID NO: 25)] | 20 to 50
DTHTNTYYL [DTHTNTYYL (SEQ ID NO: 229)] | 20 to 50
GPRGPSSGHPL [GPRGPSSGHPL (SEQ ID NO: 245)] | 20 to 50
ERRVKVSSL [ERRVKVSSL (SEQ ID NO: 51)] | 50 to 75
DIKKTNESL [DIKKTNESL (SEQ ID NO: 23)] | 20 to 50
LPKKMKLL [LPKKMKLL (SEQ ID NO: 58)] | 20 to 50
DVYFHHVL [DVYFHHVL (SEQ ID NO: 230)] | 20 to 50
IYRKKYIL [IYRKKYIL (SEQ ID NO: 34)] | 20 to 50
KPQSLQLVL [KPQSLQLVL (SEQ ID NO: 242)] | 20 to 50
LPLDSRYVTL [LPLDSRYVTL (SEQ ID NO: 237)] | 50 to 75
DPKSRLKSL [DPKSRLKSL (SEQ ID NO: 28)] | 20 to 50
ELFQRPVL [ELFQRPVL (SEQ ID NO: 35)] | 20 to 50
FDFRGKTKVF [FDFRGKTKVF (SEQ ID NO: 59)] | 20 to 50
LPYPPQKVV [LPYPPQKVV (SEQ ID NO: 224)] | 20 to 50
DLRNKIIAA [DLRNKIIAA (SEQ ID NO: 46)] | 50 to 75
ELILKHSL [ELILKHSL (SEQ ID NO: 52)] | 50 to 75

Now from value to binder:

peptide exchange yield [%] | Binder
50 to 75 | RLKVALSTL [RLKVALSTL (SEQ ID NO: 45)]
50 to 75 | SIQSRYISM [SIQSRYISM (SEQ ID NO: 3)]
20 to 50 | SPRVKWTF [SPRVKWTF (SEQ ID NO: 31)]
50 to 75 | TLRLLVAAL [TLRLLVAAL (SEQ ID NO: 50)]
50 to 75 | STMPKILAL [STMPKILAL (SEQ ID NO: 5)]
20 to 50 | QVMPKTGL [QVMPKTGL (SEQ ID NO: 4)]
50 to 75 | TLRAYVLAL [TLRAYVLAL (SEQ ID NO: 228)]
20 to 50 | TPEPSVHAL [TPEPSVHAL (SEQ ID NO: 247)]
20 to 50 | SEPVMRVTL [SEPVMRVTL (SEQ ID NO: 239)]
20 to 50 | STLKKSLEI [STLKKSLEI (SEQ ID NO: 236)]
20 to 50 | RLLQKSKEL [RLLQKSKEL (SEQ ID NO: 246)]
20 to 50 | QQIDRVVEV [QQIDRVVEV (SEQ ID NO: 249)]
20 to 50 | SRFPGMSVL [SRFPGMSVL (SEQ ID NO: 227)]
20 to 50 | RGALRTLSL [RGALRTLSL (SEQ ID NO: 41)]
20 to 50 | NPYLKLVL [NPYLKLVL (SEQ ID NO: 32)]
20 to 50 | SEVNKHETAL [SEVNKHETAL (SEQ ID NO: 248)]
50 to 75 | SPNSLVTIL [SPNSLVTIL (SEQ ID NO: 235)]
50 to 75 | WIGLRNLDL [WIGLRNLDL (SEQ ID NO: 33)]
20 to 50 | VLLSRRTAL [VLLSRRTAL (SEQ ID NO: 55)]
20 to 50 | VLRRKTLL [VLRRKTLL (SEQ ID NO: 42)]
20 to 50 | VFRVGISF [VFRVGISF (SEQ ID NO: 234)]
